In paper PMC6497169 (Nature microbiology, 2017):

T1: IcmW (L. pneumophila (Philadelphia-1), UniProt Q5ZS31 1-151)
T1 sequence: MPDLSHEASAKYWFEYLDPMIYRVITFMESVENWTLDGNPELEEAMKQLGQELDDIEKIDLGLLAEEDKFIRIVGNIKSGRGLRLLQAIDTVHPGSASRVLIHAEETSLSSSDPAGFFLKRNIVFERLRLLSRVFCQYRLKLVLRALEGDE

T2: DotN(7–214) (L. pneumophila (Philadelphia-1), UniProt Q5ZYB7 7-214)
T2 sequence: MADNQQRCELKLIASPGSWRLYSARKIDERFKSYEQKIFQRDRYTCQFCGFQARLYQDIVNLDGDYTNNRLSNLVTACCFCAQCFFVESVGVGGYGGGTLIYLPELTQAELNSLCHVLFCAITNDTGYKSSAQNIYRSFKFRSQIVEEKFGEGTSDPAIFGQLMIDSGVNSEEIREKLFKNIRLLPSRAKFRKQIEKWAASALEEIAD


Assays:
IcmW = target: T1, IcmW; assay: crystal structure
DotN(7–214) = target: T2, DotN(7–214); assay: crystal structure

| Binder | binding result (IcmW) | binding result (DotN(7–214)) |
| --- | --- | --- |
| DotL(656–783) (domain or fragment) GQNEPEPVEDIVEEEVEGALTIFSKLRIDPNAPPILVADKEVFSEPLLPINETRNQMITIERLAGAKDKYAGTVANELIKDFQIATSYPPEERDVIDVQELTGIIRDLSAKISAEREKANKKAAEELT | binds | – |
| DotL(590–659) (domain or fragment) VEPPPDDYLMKLQKQLASFQSILESGDLSINKAVENEEITLISKALKESTIVEPIERGVAALIAFHGQNE | – | binds |
